Reference: publication PMC4579600, “Structure of HCMV glycoprotein B in the postfusion conformation bound to a neutralizing human antibody” (Nature Communications, 2015)
“And” between values parts separate entries of the source, which are not always exact repeats. Identical values can stand only once.

Columns and labels:
[1] = target: 1G2 IgG (neutralizing human monoclonal antibody) (human); experiment: SPR
[2] = target: 1G2 IgG heavy chain Y103A (human); experiment: SPR
[3] = target: 1G2 IgG heavy chain F104A (human); experiment: SPR
[4] = target: 1G2 IgG heavy chain R31S (human); experiment: SPR
[5] = target: 1G2 IgG heavy chain N102A (human); experiment: SPR
[6] = target: 1G2 IgG light chain Y50A (human); experiment: SPR
[7] = target: 1G2 IgG heavy chain Y109A (human); experiment: SPR
[8] = target: 1G2 IgG light chain R51A (human); experiment: SPR
[9] = target: 1G2 IgG heavy chain S32A (human); experiment: SPR
[10] = target: HCMV glycoprotein B ectodomain ΔNgB-glyco (HCMV (Merlin strain)) (UniProt F5HB53)
[11] = target: T1, HCMV glycoprotein B ectodomain gB-698glyco (Human cytomegalovirus, Merlin, UniProt F5HB53, Ile156His | His157Arg | Trp240Asn | Tyr242Thr | Cys246Ser | Arg457Ser | …); experiment: co-IP; soluble gB ectodomain (gB-698glyco) in 1% NP40, incubated with 10 μg 1G2 for 16 h at 4 °C, Dynabeads Protein A, blot with ITC88; conditions: both partners purified
T1 construct: also called postfusion gB; soluble gB ectodomain; source: CHO lec- cells, stably expressed, secreted, purified (Ni-NTA, SEC)

[12] = target: T2, full-length WT HCMV gB (HCMV (strain ), UniProt F5HB53); experiment: flow cytometry on cells; BHK cells electroporated with full-length gB RNA, surface stained with 1 μg antibody per sample, goat anti-human IgG Alexa Fluor 647; gated on viable, dsRNA+ cells; conditions: one partner purified
T2 construct: also called FL-gB; membrane-anchored full-length gB; source: BHK cells electroporated with RNA encoding full-length gB, on the cell surface

[13] = target: T2, full-length WT HCMV gB; experiment: cell-based or functional assay
[14] = target: T3, HCMV virion gB (strain VR1814) (Human cytomegalovirus (HHV-5), strain …, UniProt Q69163, strain); experiment: co-IP; cushion-purified VR1814 virions (500 μg) lysed in 1% NP40, incubated with 10 μg 1G2 for 16 h at 4 °C, Dynabeads Protein A, blot with ITC88; conditions: one partner purified
T3 construct: also called gB from virions; source: cushion-purified VR1814 virions, lysed in 1% NP40

For “ΔNgB-glyco N284A (from UniProt F5HB53 25-698) (domain or fragment)”, the Kd [1] was 0.24 nM, the koff [1] was 7.66e-05 s⁻¹ and the kon [1] was 320000 M⁻¹ s⁻¹.

Work on “ΔNgB-glyco N281A (from UniProt F5HB53 25-698) (domain or fragment)” yielded a Kd [1] of 0.21 nM, a koff [1] of 4.57e-05 s⁻¹ and a kon [1] of 218000 M⁻¹ s⁻¹.

With “ΔNgB-glyco E292A (from UniProt F5HB53 25-698) (domain or fragment)” the Kd [1] was 0.82 nM, the koff [1] was 0.000108 s⁻¹ and the kon [1] was 132000 M⁻¹ s⁻¹.

For “HCMV glycoprotein B ectodomain ΔNgB-glyco (from UniProt F5HB53 25-698) (domain or fragment)”, the Kd [1] was 0.13 nM and 0.17 nM, the koff [1] was 3.75e-05 s⁻¹ and 6.36e-05 s⁻¹ and the kon [1] was 295000 M⁻¹ s⁻¹ and 370000 M⁻¹ s⁻¹. The Kd [2] was 2.36 nM, the koff [2] was 0.000766 s⁻¹ and the kon [2] was 325000 M⁻¹ s⁻¹. It also gave a Kd [3] of 1.53 nM, a koff [3] of 0.00045 s⁻¹ and a kon [3] of 294000 M⁻¹ s⁻¹. It also gave a Kd [4] of 0.22 nM, a koff [4] of 6.07e-05 s⁻¹ and a kon [4] of 273000 M⁻¹ s⁻¹. The Kd [5] was 1.71 nM, the koff [5] was 0.000526 s⁻¹ and the kon [5] was 306000 M⁻¹ s⁻¹. It also gave a Kd [6] of 0.33 nM, a koff [6] of 0.000118 s⁻¹ and a kon [6] of 357000 M⁻¹ s⁻¹. For the same molecule, the Kd [7] was 0.24 nM, the koff [7] was 7.67e-05 s⁻¹ and the kon [7] was 324000 M⁻¹ s⁻¹. It also gave a Kd [8] of 0.16 nM, a koff [8] of 5.11e-05 s⁻¹ and a kon [8] of 327000 M⁻¹ s⁻¹. For the same molecule, the Kd [9] was 0.03 nM, the koff [9] was 1.06e-05 s⁻¹ and the kon [9] was 396000 M⁻¹ s⁻¹.

“ΔNgB-glyco YND-AAA (Y280A/N293A/D295A) (from UniProt F5HB53 25-698) (domain or fragment)” was tested, and the Kd [1] was 18.7 nM, the koff [1] was 0.000392 s⁻¹ and the kon [1] was 21000 M⁻¹ s⁻¹.

“ΔNgB-glyco F298A (from UniProt F5HB53 25-698) (domain or fragment)” gave a Kd [1] of 0.26 nM, a koff [1] of 5.59e-05 s⁻¹ and a kon [1] of 214000 M⁻¹ s⁻¹.

“1G2 IgG (neutralizing human monoclonal antibody)” showed a neutralisation EC50, HCMV TB40/E infection of ARPE-19 epithelial cells [10] of 0.1 µg/mL.

“ΔNgB-glyco F290A (from UniProt F5HB53 25-698) (domain or fragment)” gave a Kd [1] of 3.79 nM, a koff [1] of 0.000249 s⁻¹ and a kon [1] of 66000 M⁻¹ s⁻¹.

“ΔNgB-glyco N286A (from UniProt F5HB53 25-698) (domain or fragment)” showed a Kd [1] of 0.07 nM, a koff [1] of 4.89e-05 s⁻¹ and a kon [1] of 724000 M⁻¹ s⁻¹.

In the case of “ΔNgB-glyco T283A (from UniProt F5HB53 25-698) (domain or fragment)”, the Kd [1] is reported as 0.23 nM, the koff [1] is reported as 6.99e-05 s⁻¹ and the kon [1] is reported as 310000 M⁻¹ s⁻¹.

“ΔNgB-glyco Y280A (from UniProt F5HB53 25-698) (domain or fragment)” gave a Kd [1] of 29.3 nM, a koff [1] of 0.000195 s⁻¹ and a kon [1] of 7000 M⁻¹ s⁻¹.

“ΔNgB-glyco N293A/D295A (from UniProt F5HB53 25-698) (domain or fragment)” showed a Kd [1] of 0.35 nM, a koff [1] of 8.43e-05 s⁻¹ and a kon [1] of 240000 M⁻¹ s⁻¹.

Molecule “ΔNgB-glyco I299A (from UniProt F5HB53 25-698) (domain or fragment)” has a Kd [1] of 0.58 nM, a koff [1] of 9e-05 s⁻¹ and a kon [1] of 155000 M⁻¹ s⁻¹.

For “ΔNgB-glyco F297A (from UniProt F5HB53 25-698) (domain or fragment)”, the Kd [1] was 13.7 nM, the koff [1] was 0.000267 s⁻¹ and the kon [1] was 19000 M⁻¹ s⁻¹.

B1: 1G2 IgG (neutralizing human monoclonal antibody) (antibody, V domains shown)
VH: QLQLQESGPGLVKPSETLSLTCTVSGASIDRSTYYWGWIRQPPGKGLEWIANIYYNGRAVYSPSLKSRVTISVDTSKNQFSLKVRSLTAADTAVYYCATRWNYFFDFDYWGRGTLVTVSS
VL: QSVLTQPPSASGTPGQRVTISCSGSSSNIETNYVSWYQQFPGTAPKLLIYRNNQRPSGVPDRFSGSKSGTSASLAISGLRSEDEAEYYCGTWDDNSWVFGGGTKLTVL
notes: IgG1; also called 1G2 mAb; WT 1G2
For B1, the binding result [11] was “binds”, the binding result [12] was “binds” and the “neutralisation EC50, gB on virus of HCMV strain 8816 (Ala287), ARPE-19 cells” value [13] was 0.046 µg/mL. For the same molecule, the “neutralisation EC50, gB on virus of HCMV strain 8819 (Ala287), ARPE-19 cells” value [13] was 0.485 µg/mL, the “neutralisation EC50, gB on virus of HCMV strain 8819 (Ala287), NHDF cells” value [13] was 0.85 µg/mL and the “neutralisation EC50, gB on virus of HCMV strain 8822 (Ala287), ARPE-19 cells” value [13] was 0.319 µg/mL. The “neutralisation EC50, gB on virus of HCMV strain 8822 (Ala287), NHDF cells” value [13] was 0.485 µg/mL, the “neutralisation EC50, gB on virus of HCMV strain 8824 (Ala287), ARPE-19 cells” value [13] was 0.019 µg/mL and the “neutralisation EC50, gB on virus of HCMV strain 8824 (Ala287), NHDF cells” value [13] was 0.043 µg/mL. The “neutralisation EC50, gB on virus of HCMV strain TM-28175 (Ala287), NHDF cells” value [13] was 0.138 µg/mL, the “neutralisation EC50, gB on virus of HCMV strain TR (Ala287), ARPE-19 cells” value [13] was 0.248 µg/mL and the “neutralisation EC50, gB on virus of HCMV strain TR (Ala287), NHDF cells” value [13] was 0.303 µg/mL. B1: binds [14].
